Reference: article PMC8486872 (2021)
Changes are numbered by the printed parent chain.

B1: LD3_v3 (designed binder)
chain: QRWELALGRFLEYLSWVSTLSEQVQEELLSSQVTQELRALMDETMKELKAYKSELEEQLTPVAEETRARLSKELQAAQARLGADMEDVRGRLVQYRGEVQAMLGQSTEELRVRLASHLIALALRLIGAAFDLQKRLAVY
B2: LD3_v2 (designed binder)
chain: B1 chain with R124A, A128D
B3: LD3_v1 (designed binder)
chain: B1 chain with E12A, A128D

molecular target: Bcl2 (UniProt P10415 1-239); experiment: SPR
Sequence (P10415 whole entry): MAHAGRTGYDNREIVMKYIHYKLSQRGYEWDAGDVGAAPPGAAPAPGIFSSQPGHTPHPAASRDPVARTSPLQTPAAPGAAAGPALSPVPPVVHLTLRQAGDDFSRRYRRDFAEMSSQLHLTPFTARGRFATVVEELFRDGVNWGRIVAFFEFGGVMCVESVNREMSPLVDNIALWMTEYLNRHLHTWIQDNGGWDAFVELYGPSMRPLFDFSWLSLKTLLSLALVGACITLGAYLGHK

Row | Binder | Kd [nM]
1 | B1 | 147
2 | B2 | 64.1
3 | B3 | 16.8
